Measured values: PMC2575792

Target: T1, ICAM-1 fused to monomeric EGFP (mEGFP) or to mRFP1, P05362
T1 chain: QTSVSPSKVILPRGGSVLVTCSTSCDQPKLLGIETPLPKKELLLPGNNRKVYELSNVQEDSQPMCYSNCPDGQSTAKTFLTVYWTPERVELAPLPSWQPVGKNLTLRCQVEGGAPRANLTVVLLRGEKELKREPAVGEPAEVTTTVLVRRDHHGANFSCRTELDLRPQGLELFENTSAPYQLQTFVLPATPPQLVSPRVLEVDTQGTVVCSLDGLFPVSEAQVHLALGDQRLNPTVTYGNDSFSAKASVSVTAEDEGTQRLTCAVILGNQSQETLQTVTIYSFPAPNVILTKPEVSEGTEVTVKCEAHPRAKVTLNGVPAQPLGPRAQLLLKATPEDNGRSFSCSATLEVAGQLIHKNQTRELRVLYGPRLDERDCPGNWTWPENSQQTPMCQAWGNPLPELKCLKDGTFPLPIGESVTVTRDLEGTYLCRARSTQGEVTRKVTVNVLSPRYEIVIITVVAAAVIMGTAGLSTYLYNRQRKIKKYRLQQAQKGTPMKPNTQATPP
Assay: FRET or BRET
Settings: remark: other sources report otherwise

B1: ICAM-1 fused to monomeric EGFP (mEGFP) or to mRFP1, P05362 28-532 (receptor)
chain: T1 chain
FRET efficiency: 14 to 34% | percent of pixels with positive FRET: 12%
